# Measurements published in the supplement of paper PMC9112550, “Optimization of the antimicrobial peptide Bac7 by deep mutational scanning” (BMC Biology, 2022).
# Test system: Escherichia coli TOP10
# Test: shrunken log2 fold change of peptide-encoding DNA abundance (4.5 h post-induction vs induction); higher = less antimicrobial activity (less host growth inhibition)
# Details: time post-induction: 4.5 h; library: site-saturation at positions 5, 18, 19, 20
# 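Note: peptides expressed intracellularly from a pBAD plasmid library in pooled LB shake-flask culture, induced with 0.3% L-arabinose, DNA abundance read by NGS, three biological replicates, DESeq2 with apeglm shrinkage.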
row,Sequence,shrunken log2 fold change
1,RRIRQRPPRLPRPRPRPDMTPRP,-0.129
2,RRIRRRPPRLPRPRPRPLYYPRP,-0.259
3,RRIRERPPRLPRPRPRPICQPRP,0.00158
4,RRIRERPPRLPRPRPRPLEWPRP,-0.0018
5,RRIRSRPPRLPRPRPRPKKHPRP,-0.0966
6,RRIRPRPPRLPRPRPRPGAQPRP,0.198
7,RRIRVRPPRLPRPRPRPEAIPRP,-0.0125
8,RRIRGRPPRLPRPRPRPESIPRP,0.483
9,RRIRKRPPRLPRPRPRPPMIPRP,-0.0795
10,RRIRYRPPRLPRPRPRPRCMPRP,-0.425
11,RRIRKRPPRLPRPRPRPDQSPRP,0.0875
12,RRIRMRPPRLPRPRPRPAMNPRP,-0.00221
13,RRIRQRPPRLPRPRPRPLFHPRP,-0.733
14,RRIRDRPPRLPRPRPRPMGVPRP,0.0778
15,RRIRPRPPRLPRPRPRPRRSPRP,0.124
16,RRIRLRPPRLPRPRPRPCVHPRP,-0.377
17,RRIRYRPPRLPRPRPRPEGDPRP,-0.00396
18,RRIRARPPRLPRPRPRPIRHPRP,-0.0279
19,RRIRTRPPRLPRPRPRPIWGPRP,-0.144
20,RRIRIRPPRLPRPRPRPWGMPRP,0.0727

row,Sequence,shrunken log2 fold change
1,RRIRIRPPRLPRPRPRPGAKPRP,0.126
2,RRIRFRPPRLPRPRPRPCTWPRP,-0.0991
3,RRIRSRPPRLPRPRPRPSYQPRP,-0.434
4,RRIRMRPPRLPRPRPRPYTAPRP,0.147
5,RRIRPRPPRLPRPRPRPGLYPRP,-0.132
6,RRIRVRPPRLPRPRPRPAETPRP,0.344
7,RRIRERPPRLPRPRPRPQTQPRP,-0.0049
8,RRIRARPPRLPRPRPRPYCTPRP,-0.0621
9,RRIRLRPPRLPRPRPRPRQNPRP,0.108
10,RRIRQRPPRLPRPRPRPVDPPRP,-0.0233
11,RRIRFRPPRLPRPRPRPRQGPRP,0.259
12,RRIRGRPPRLPRPRPRPPVWPRP,0.861
13,RRIRFRPPRLPRPRPRPCWAPRP,0.105
14,RRIRSRPPRLPRPRPRPTQIPRP,0.048
15,RRIRCRPPRLPRPRPRPPTCPRP,0.183
16,RRIRSRPPRLPRPRPRPTKAPRP,0.266
17,RRIRFRPPRLPRPRPRPSWDPRP,-0.152
18,RRIRTRPPRLPRPRPRPARCPRP,0.324
19,RRIRYRPPRLPRPRPRPRFAPRP,-0.152
20,RRIRWRPPRLPRPRPRPALTPRP,0.393

row,Sequence,shrunken log2 fold change
1,RRIRIRPPRLPRPRPRPNCFPRP,0.00306
2,RRIRERPPRLPRPRPRPQRIPRP,-0.0866
3,RRIRSRPPRLPRPRPRPYSFPRP,-0.795
4,RRIRRRPPRLPRPRPRPLGIPRP,0.984
5,RRIRVRPPRLPRPRPRPKPDPRP,0.206
6,RRIRFRPPRLPRPRPRPFGPPRP,-0.159
7,RRIRHRPPRLPRPRPRPYNLPRP,-0.302
8,RRIRDRPPRLPRPRPRPESRPRP,0.0324
9,RRIRHRPPRLPRPRPRPESRPRP,-0.17
10,RRIRYRPPRLPRPRPRPANDPRP,-0.0297
11,RRIRHRPPRLPRPRPRPHYVPRP,-0.057
12,RRIRGRPPRLPRPRPRPGPWPRP,0.484
13,RRIRTRPPRLPRPRPRPCYYPRP,0.0075
14,RRIRRRPPRLPRPRPRPFQVPRP,-0.0462
15,RRIRVRPPRLPRPRPRPYVCPRP,-0.525
16,RRIRWRPPRLPRPRPRPYIPPRP,-1.15
17,RRIRQRPPRLPRPRPRPLAEPRP,-0.0181
18,RRIRSRPPRLPRPRPRPQEVPRP,-0.0423
19,RRIRFRPPRLPRPRPRPIWMPRP,-0.226
20,RRIRVRPPRLPRPRPRPECYPRP,-0.035
